The values that follow are results of earlier work, collected in article PMC9079180.

This data set has as its target tau (Homo sapiens).

Sequence of Hsp70 (P0A6Z0 2-638): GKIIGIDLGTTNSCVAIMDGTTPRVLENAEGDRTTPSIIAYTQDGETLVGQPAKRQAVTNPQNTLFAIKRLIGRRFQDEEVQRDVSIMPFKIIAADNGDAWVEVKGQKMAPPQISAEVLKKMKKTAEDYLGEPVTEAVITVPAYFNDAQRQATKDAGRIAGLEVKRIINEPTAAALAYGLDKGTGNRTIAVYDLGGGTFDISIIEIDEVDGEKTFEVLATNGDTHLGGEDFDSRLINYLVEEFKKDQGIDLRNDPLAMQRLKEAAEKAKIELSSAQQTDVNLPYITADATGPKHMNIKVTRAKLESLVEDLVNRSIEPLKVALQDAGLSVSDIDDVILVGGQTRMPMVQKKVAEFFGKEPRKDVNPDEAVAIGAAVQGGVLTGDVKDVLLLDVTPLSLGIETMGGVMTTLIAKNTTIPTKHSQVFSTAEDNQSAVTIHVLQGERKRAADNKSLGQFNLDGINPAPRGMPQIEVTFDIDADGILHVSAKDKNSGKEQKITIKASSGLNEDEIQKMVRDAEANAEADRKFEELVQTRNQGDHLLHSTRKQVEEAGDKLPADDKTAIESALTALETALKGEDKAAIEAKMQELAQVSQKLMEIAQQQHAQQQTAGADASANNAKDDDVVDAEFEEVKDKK

For the substance Hsp70 (from UniProt P0A6Z0), the Kd was 400 nM.
